This note sets out measurements from patent publication US20220072032A1 (AARHUS UNIVERSITET, published 2022).

In test [1] the target is Wild type human PCSK9 (proprotein convertase subtilisin-like/kexin type 9) (human, UniProt Q8NBP7 31-692, 35S metabolic label in the immunoprecipitations). As to the kind of experiment: cell-based or functional assay.
In test [2] the target is T1, PCSK9 mutant R93R96R97R104R105H139 (all mutated to alanine) (human, UniProt Q8NBP7 31-692, 35S metabolic label).
T1 construct: also called mutant PCSK9; 35S-mutant PCSK9
As to the kind of experiment: immunoprecipitation of 35S-labelled PCSK9 mutant R93R96R97R104R105H139 (all to alanine) by mAb, autoradiography (16 h) [CONT.) H].

Test [3] deals with T2, PCSK9 mutant R104R105 (alanine substitutions) (human, UniProt Q8NBP7 31-692, 35S metabolic label).
T2 construct: also called variant R104R105
The experiment in a line: immunoprecipitation of 35S-labelled PCSK9 WT and alanine variants, autoradiography [CONT.) I].

The next test concerns the target T3, R93R104R105H139 (35S metabolic label).
T3 construct: also called 35S PCSK9 variant R93R104R105H139
The description is as above.

For test [4], the target named is T4, PCSK9 mutant R96R97 (alanine substitutions) (human, UniProt Q8NBP7 31-692, 35S metabolic label).
T4 construct: also called variant R96R97
The test is described as above.

Chain of Wild type human PCSK9 (proprotein convertase subtilisin-like/kexin type 9) (Q8NBP7 31-692 limits assumed): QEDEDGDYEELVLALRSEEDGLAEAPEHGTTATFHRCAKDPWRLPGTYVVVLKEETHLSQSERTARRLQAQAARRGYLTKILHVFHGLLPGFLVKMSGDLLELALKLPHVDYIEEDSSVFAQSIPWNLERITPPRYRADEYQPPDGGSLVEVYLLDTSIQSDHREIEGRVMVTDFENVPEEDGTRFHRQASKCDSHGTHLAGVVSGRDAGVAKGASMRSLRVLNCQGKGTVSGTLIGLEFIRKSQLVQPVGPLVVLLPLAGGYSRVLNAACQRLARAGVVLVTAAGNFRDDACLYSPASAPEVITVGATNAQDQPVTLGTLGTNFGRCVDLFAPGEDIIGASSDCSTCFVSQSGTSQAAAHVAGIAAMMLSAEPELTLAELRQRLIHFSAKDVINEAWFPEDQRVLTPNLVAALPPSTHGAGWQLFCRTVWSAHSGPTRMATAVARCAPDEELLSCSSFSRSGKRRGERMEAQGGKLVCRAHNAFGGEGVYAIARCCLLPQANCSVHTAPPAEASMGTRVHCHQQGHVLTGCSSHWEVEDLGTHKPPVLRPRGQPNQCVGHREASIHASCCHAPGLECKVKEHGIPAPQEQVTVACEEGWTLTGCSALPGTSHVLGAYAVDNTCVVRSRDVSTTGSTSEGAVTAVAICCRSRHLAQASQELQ
T1 sequence (Q8NBP7 other isoform, or with tags, fused parts or gaps mutant limits assumed): as the sequence (Q8NBP7 31-692 limits assumed) above, with R63A, R66A, R67A, R74A, R75A, H109A counted along it
T3 sequence (PCSK9, as listed by the source limits assumed): as the sequence (Q8NBP7 31-692 limits assumed) above, with R63A, R74A, R75A, H109A counted along it
T2 sequence (Q8NBP7 other isoform, or with tags, fused parts or gaps mutant limits assumed): as the sequence (Q8NBP7 31-692 limits assumed) above, with R74A, R75A counted along it
T4 sequence (Q8NBP7 other isoform, or with tags, fused parts or gaps mutant limits assumed): as the sequence (Q8NBP7 31-692 limits assumed) above, with R66A, R67A counted along it

B1: mAb 8H4 (rat hybridoma BNT-8H4-B8/C7-E11) (antibody, V domains shown)
VH: QVTLKESGPGILQPSQTLSLTCSFSGFSLSSSGICVSWIRQPSGKGLEWLATICWEDSKGYNPSLKNRLTISKDTSNNQALLRITSVDTADTAIYYCARVYYWYFDFWGPGTMVTVSS
VL: DIVMTQSPSLLSASVGDRVTLSCKGSQNINNYLAWYQQKLGEAPKLLIYNTNSLQTGIPSRFSGSGSGTDCTLTIRSLQPEDVATYFCYQYNNGNTFGGGTKLELK
notes: Rat monoclonal antibody, used as conditioned hybridoma medium
B1: the “cellular levels of LDLR in HepG2 cells (Western blot)” value in test [1] was roughly 2 fold. Further, the binding result in test [2] is “no binding (tested: 500 µl conditioned hybridoma medium)”.

B2: mAb 5E11 (rat hybridoma BNT-5E11-D4/G1-E4) (antibody, V domains shown)
VH: EVQLQESGPGLVKPSQSLSLTCSVTGYTITSGYDWSWIRRFPGNTMEWMGDISYSGSTNYNPSLKSRVSITRDTSKNQFFLQLNSVTTGDTATYYCAKLPGWGQGTLVTVSS
VL: DVVLTQTPVFLSVTLGDQTSISCRSSQSLEYSDGYTYLEWYLQKPGQSPQLLIYEVSNRFSGVPDRFIGSGSGTDFTLKISRVEPEDLGVYYCFQGTHDPLTFGSGTKLEIK
notes: as for B1
In the case of B2, in test [1], the “cellular levels of LDLR in HepG2 cells (Western blot)” value is roughly 2 fold. Moreover, the binding result is recorded as “no binding” in test [3], “no binding” with R93R104R105H139, “no binding” in test [4] and “no binding (tested: 500 µl conditioned hybridoma medium)” in test [2].
